In US20240199745A1, “ANTI-EGFR ANTIBODY DRUG CONJUGATES” (priority 2016, published 2024):

How the values were obtained:
[1] = biological target: human EGFR (huEGFR) over-expressed on mcl-1-/- mouse embryonic fibroblasts (human, UniProt P00533 25-1210); assay: cell-based or functional assay
[2] = biological target: EGFR on EGFR positive non-small cell lung cancer cells NCI-H1650 (UniProt P00533 25-1210); assay: cell-based or functional assay

Row | Binder | huEGFR+ mcl-1-/- MEF EC50 [1] | H1650 CTG-3D EC50 [2] | H1650 GFP Flourescence EC50 [2]
1 | AbG-WD (antibody, human IgG1, kappa, V domains shown, synthon WD on reduced interchain cysteines; average DAR 3.4 per ADC) VH: EVQLQESGPGLVKPSQTLSLTCTVSGYSISNDFAWNWIRQLPGKGLEWMGYISYKGNTRYQPSLKSRITISRDTSKNQFFLKLNSVTAADTATYYCVTASRGLPYWGQGTLVTVSS VL: DIQMTQSPSSMSVSVGDRVTITCHSSQDITYNIGWLQQKPGKSFKGLIYHGANLDDGVPSRFSGSGSGTDYTLTISSLQPEDFATYYCVQYDEFPWTFGGGTKLEIKR | 5.8 nM | 2.03 µg/mL | 0.36 µg/mL
2 | AbG-YY (antibody, human IgG1, kappa, V domains shown, synthon YY on reduced interchain cysteines; average DAR 2.2 per ADC) VH: EVQLQESGPGLVKPSQTLSLTCTVSGYSISNDFAWNWIRQLPGKGLEWMGYISYKGNTRYQPSLKSRITISRDTSKNQFFLKLNSVTAADTATYYCVTASRGLPYWGQGTLVTVSS VL: DIQMTQSPSSMSVSVGDRVTITCHSSQDITYNIGWLQQKPGKSFKGLIYHGANLDDGVPSRFSGSGSGTDYTLTISSLQPEDFATYYCVQYDEFPWTFGGGTKLEIKR | > 500 nM | 0.4 µg/mL | 1.1 µg/mL
3 | AbG-TV (antibody, human IgG1, kappa, V domains shown, synthon TV on reduced interchain cysteines; average DAR 3.7 per ADC) VH: EVQLQESGPGLVKPSQTLSLTCTVSGYSISNDFAWNWIRQLPGKGLEWMGYISYKGNTRYQPSLKSRITISRDTSKNQFFLKLNSVTAADTATYYCVTASRGLPYWGQGTLVTVSS VL: DIQMTQSPSSMSVSVGDRVTITCHSSQDITYNIGWLQQKPGKSFKGLIYHGANLDDGVPSRFSGSGSGTDYTLTISSLQPEDFATYYCVQYDEFPWTFGGGTKLEIKR | 2.6 nM | 0.03 µg/mL | 0.04 µg/mL
4 | AbA-LB (antibody, human IgG1, kappa, V domains shown, synthon LB on reduced interchain cysteines; average DAR 2.4 per ADC) VH: EVQLQESGPGLVKPSQTLSLTCTVSGYSISRDFAWNWIRQPPGKGLEWMGYISYNGNTRYQPSLKSRITISRDTSKNQFFLKLNSVTAADTATYYCVTASRGFPYWGQGTLVTVSS VL: DIQMTQSPSSMSVSVGDRVTITCHSSQDINSNIGWLQQKPGKSFKGLIYHGTNLDDGVPSRFSGSGSGTDYTLTISSLQPEDFATYYCVQYAQFPWTFGGGTKLEIKR | 27 nM | 4.05 µg/mL | 2.48 µg/mL
5 | AbK-TX (antibody, human IgG1, kappa, V domains shown, synthon TX on reduced interchain cysteines; average DAR 2.2 per ADC) VH: EVQLQESGPGLVKPSQTLSLTCTVSGYSISRDFAWNWIRQPPGKGLEWMGYISYNGNTRYQPSLKSRITISRDTSKNQFFLKLNSVTAADTATYYCVTASRGFPWWGQGTLVTVSS VL: DIQMTQSPSSMSVSVGDRVTITCHSSQDITYNVGWLQQKPGKSFKGLIYHGSNLDHGVPSRFSGSGSGTDYTLTISSLQPEDFATYYCVQYDDFPWTFGGGTKLEIKR | 0.79 nM | 1.07 µg/mL | 1.47 µg/mL
6 | AbB-LB (antibody, human IgG1, kappa, V domains shown, synthon LB on reduced interchain cysteines; average DAR 1.8 per ADC) VH: EVQLQESGPGLVKPSQTLSLTCTVSGYSISNDFAWNWIRQPPGKGLEWMGYISYKGNTRYQPSLKSRITISRDTSKNQFFLKLNSVTAADTATYYCVTASRGFPWWGQGTLVTVSS VL: DIQMTQSPSSMSVSVGDRVTITCHSSQDINSNIGWLQQKPGKSFKGLIYHGTNLDDGVPSRFSGSGSGTDYTLTISSLQPEDFATYYCVQYAQFPWTFGGGTKLEIKR | 31 nM | 1.07 µg/mL | 2.38 µg/mL
7 | AbG-TX (antibody, human IgG1, kappa, V domains shown, synthon TX on reduced interchain cysteines; average DAR 3.3 per ADC) VH: EVQLQESGPGLVKPSQTLSLTCTVSGYSISNDFAWNWIRQLPGKGLEWMGYISYKGNTRYQPSLKSRITISRDTSKNQFFLKLNSVTAADTATYYCVTASRGLPYWGQGTLVTVSS VL: DIQMTQSPSSMSVSVGDRVTITCHSSQDITYNIGWLQQKPGKSFKGLIYHGANLDDGVPSRFSGSGSGTDYTLTISSLQPEDFATYYCVQYDEFPWTFGGGTKLEIKR | 5.3 nM | 0.15 µg/mL | 0.51 µg/mL
8 | AbK-AAD (antibody, human IgG1, kappa, V domains shown, synthon AAD on reduced interchain cysteines; average DAR 2.8 per ADC) VH: EVQLQESGPGLVKPSQTLSLTCTVSGYSISRDFAWNWIRQPPGKGLEWMGYISYNGNTRYQPSLKSRITISRDTSKNQFFLKLNSVTAADTATYYCVTASRGFPWWGQGTLVTVSS VL: DIQMTQSPSSMSVSVGDRVTITCHSSQDITYNVGWLQQKPGKSFKGLIYHGSNLDHGVPSRFSGSGSGTDYTLTISSLQPEDFATYYCVQYDDFPWTFGGGTKLEIKR | 0.4 nM | 0.01 µg/mL | 0.06 µg/mL
9 | AbK-TV (antibody, human IgG1, kappa, V domains shown, synthon TV on reduced interchain cysteines; average DAR 2.4 per ADC) VH: EVQLQESGPGLVKPSQTLSLTCTVSGYSISRDFAWNWIRQPPGKGLEWMGYISYNGNTRYQPSLKSRITISRDTSKNQFFLKLNSVTAADTATYYCVTASRGFPWWGQGTLVTVSS VL: DIQMTQSPSSMSVSVGDRVTITCHSSQDITYNVGWLQQKPGKSFKGLIYHGSNLDHGVPSRFSGSGSGTDYTLTISSLQPEDFATYYCVQYDDFPWTFGGGTKLEIKR | 0.15 nM | 0.05 µg/mL | 0.16 µg/mL
10 | AbB-WD (antibody, human IgG1, kappa, V domains shown, synthon WD on reduced interchain cysteines; average DAR 1.6 per ADC) VH: EVQLQESGPGLVKPSQTLSLTCTVSGYSISNDFAWNWIRQPPGKGLEWMGYISYKGNTRYQPSLKSRITISRDTSKNQFFLKLNSVTAADTATYYCVTASRGFPWWGQGTLVTVSS VL: DIQMTQSPSSMSVSVGDRVTITCHSSQDINSNIGWLQQKPGKSFKGLIYHGTNLDDGVPSRFSGSGSGTDYTLTISSLQPEDFATYYCVQYAQFPWTFGGGTKLEIKR | 23 nM | 2.69 µg/mL | 1.01 µg/mL
